In article PMC4356369, “An intermolecular binding mechanism involving multiple LysM domains mediates carbohydrate recognition by an endopeptidase” (Acta Crystallographica Section D: Biological Crystallography, 2015):

Tests used:
[1] = biological target: T1, P60_tth (TTHA0266), full-length (Thermus thermophilus, UniProt Q5SLM7); test: microscale thermophoresis; format: binding; conditions: labelled protein (200 nM); 50 mM phosphate pH 7.5, 0.1% Tween 20; incubated 1 h at 60°C, measured at room temperature; read-out: apparent Kd
T1 construct: full-length P60_tth (LysM1, LysM2, NlpC/P60 catalytic domain); Trx/His/S-tag fusion cut by TEV, expressed in E. coli BL21 Rosetta 2 (DE3)

[2] = biological target: T2, P60_tth (TTHA0266), full-length (Thermus thermophilus, UniProt Q5SLM7, F76A/R80A/E99A); test: microscale thermophoresis; format: binding; conditions: labelled protein (200 nM); 50 mM phosphate pH 7.5, 0.1% Tween 20; incubated 1 h at 60°C, measured at room temperature; P60_tth_LysM2_mut
T2 construct: full-length P60_tth (LysM1, LysM2, NlpC/P60 catalytic domain); Trx/His/S-tag fusion cut by TEV, expressed in E. coli BL21 Rosetta 2 (DE3)

[3] = biological target: T3, P60_tth (TTHA0266), full-length (Thermus thermophilus, UniProt Q5SLM7, Y28A/R32A/F50A/Q53A); test: microscale thermophoresis; format: binding; conditions: labelled protein (200 nM); 50 mM phosphate pH 7.5, 0.1% Tween 20; incubated 1 h at 60°C, measured at room temperature; P60_tth_LysM1_mut (Nus/His/S-tag fusion, tags cleaved)
T3 construct: full-length P60_tth (LysM1, LysM2, NlpC/P60 catalytic domain); Trx/His/S-tag fusion cut by TEV, expressed in E. coli BL21 Rosetta 2 (DE3)

P60_2LysM = biological target: T4, P60_2LysM (Thermus thermophilus, UniProt Q5SLM7); test: X-ray co-crystal structure, […] Å; format: binding; conditions: co-crystallized at protein:sugar 1:2; LysM1 and LysM2 of symmetry-related monomers share one ligand; pH 6.5
T4 construct: gene TTHA0266; LysM1-LysM2 only, no catalytic domain; Trx/His/S-tag fusion cut by TEV, expressed in E. coli

[4] = biological target: P60_cata (catalytic domain of P60_tth alone) (Thermus thermophilus); test: SEC; Superdex 75 10/300 GL, 50 mM Tris-HCl pH 8, 200 mM NaCl, 5 mM beta-mercaptoethanol, 0.5 ml/min; apparent molecular weight from a calibration curve
[5] = biological target: P60_cata (catalytic domain of P60_tth alone) (Thermus thermophilus); test: SAXS; small-angle X-ray scattering in solution, ESRF beamline BM-29; molecular weight estimated from the scattering; models evaluated with CRYSOL and CORAL
[6] = biological target: P60_tth (TTHA0266), NlpC/P60 D,L-endopeptidase from Thermus thermophilus, full-length protein (Thermus thermophilus) (UniProt Q5SLM7); test: SEC; Superdex 75 10/300 GL, 50 mM Tris-HCl pH 8, 200 mM NaCl, 5 mM beta-mercaptoethanol, 0.5 ml/min; apparent molecular weight from a calibration curve
[7] = biological target: P60_tth (TTHA0266), NlpC/P60 D,L-endopeptidase from Thermus thermophilus, full-length protein (Thermus thermophilus) (UniProt Q5SLM7); test: SAXS; small-angle X-ray scattering in solution, ESRF beamline BM-29; molecular weight estimated from the scattering; models evaluated with CRYSOL and CORAL
[8] = biological target: the molecule itself; test: SEC; Superdex 75 10/300 GL, 50 mM Tris-HCl pH 8, 200 mM NaCl, 5 mM beta-mercaptoethanol, 0.5 ml/min; apparent molecular weight from a calibration curve

T4 sequence (Q5SLM7 15-114 limits assumed): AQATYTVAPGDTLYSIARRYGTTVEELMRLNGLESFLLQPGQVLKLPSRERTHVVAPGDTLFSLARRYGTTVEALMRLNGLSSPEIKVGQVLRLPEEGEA
T2 sequence (Q5SLM7 entry or part of it F76A/R80A/E99A): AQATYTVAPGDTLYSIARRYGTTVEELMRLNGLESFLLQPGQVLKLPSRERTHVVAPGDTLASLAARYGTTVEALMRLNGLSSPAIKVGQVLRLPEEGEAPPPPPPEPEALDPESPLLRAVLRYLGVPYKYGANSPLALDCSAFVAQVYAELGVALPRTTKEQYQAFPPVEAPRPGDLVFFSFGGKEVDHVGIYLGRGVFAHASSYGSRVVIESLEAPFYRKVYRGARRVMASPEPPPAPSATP
T3 sequence (Q5SLM7 entry or part of it Y28A/R32A/F50A/Q53A): as the sequence (Q5SLM7 entry or part of it F76A/R80A/E99A) above, with Y14A, R18A, F36A, Q39A, A62F, A66R, A85E counted along it
T1 sequence (Q5SLM7 15-258): as the sequence (Q5SLM7 entry or part of it F76A/R80A/E99A) above, with A62F, A66R, A85E counted along it

Molecule: CC(=O)N[C@H]1[C@H](O[C@H]2[C@H](O)[C@@H](NC(C)=O)[C@H](O[C@H]3[C@H](O)[C@@H](NC(C)=O)C(O)O[C@@H]3CO)O[C@@H]2CO)O[C@H](CO)[C@@H](O[C@@H]2O[C@H](CO)[C@@H](O[C@@H]3O[C@H](CO)[C@@H](O[C@@H]4O[C@H](CO)[C@@H](O)[C@H](O)[C@H]4NC(C)=O)[C@H](O)[C@H]3NC(C)=O)[C@H](O)[C@H]2NC(C)=O)[C@@H]1O (stereo partly drawn) [chitohexaose]
- Kd [1]: 90 ± 19.8 µM
- Kd [2]: 292 ± 86.5 µM
- Kd [3]: 321 ± 112 µM
- X-ray co-crystal structure, 1.75 Å (P60_2LysM): solved the crystal structure of P60_2LysM bound to chitohexaose

Molecule: P60_cata (catalytic domain of P60_tth alone) (domain or fragment)
- stoichiometry N [4]: 2
- stoichiometry N [5]: 2

Molecule: P60_tth (TTHA0266), NlpC/P60 D,L-endopeptidase from Thermus thermophilus, full-length protein (from UniProt Q5SLM7 1-258) (enzyme)
- stoichiometry N [6]: 2
- stoichiometry N [7]: 2

B1: P60_1LysM (P60_tth with the N-terminal LysM domain deleted) (domain or fragment, Thermus thermophilus, UniProt Q5SLM7 62-258, looked up)
chain: SRERTHVVAPGDTLFSLARRYGTTVEALMRLNGLSSPEIKVGQVLRLPEEGEAPPPPPPEPEALDPESPLLRAVLRYLGVPYKYGANSPLALDCSAFVAQVYAELGVALPRTTKEQYQAFPPVEAPRPGDLVFFSFGGKEVDHVGIYLGRGVFAHASSYGSRVVIESLEAPFYRKVYRGARRVMASPEPPPAPSATP
notes: TTHA0266 (P60_tth) of Thermus thermophilus without the N-terminal LysM domain (LysM2, linker and catalytic domain); predicted molecular weight 21.4 kDa; with Val69 and Thr74 of the text this puts the first residue at Ser62; The start was worked out from the translated primer and the residue numbers printed for LysM2; the C-terminus is as in the full-length construct; source: E. coli BL21 Rosetta …
- stoichiometry N [8]: 2
